Tests used:
Test in all cases: iTopia peptide binding assay
[1] = target: T1, MHC class I molecule A*0101 (biotin (bound to streptavidin-coated plate))
T1 construct: iTopia monomer stripped of placeholder peptide and b2M, then reconstituted with test peptide and fresh b2M; also called A1; HLA-A1
Procedure, shortened: (§1)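 In this kit-based ELISA, nonamer peptides are scored in duplicate for binding to plate-bound MHC under standardized optimal conditions, alongside allele-specific positive controls. Peptides classed as binders proceed to dissociation and affinity experiments.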

[2] = target: T2, MHC class I molecule A*0201 (biotin (bound to streptavidin-coated plate))
T2 construct: iTopia monomer stripped of placeholder peptide and b2M, then reconstituted with test peptide and fresh b2M; also called A2; HLA-A2
Procedure, shortened: as §1

[3] = target: T3, MHC class I molecule A*0301 (biotin (bound to streptavidin-coated plate))
T3 construct: iTopia monomer stripped of placeholder peptide and b2M, then reconstituted with test peptide and fresh b2M; also called A3; HLA-A3
Procedure, shortened: as §1

[4] = target: T4, MHC class I molecule B*0702 (biotin (bound to streptavidin-coated plate))
T4 construct: iTopia monomer stripped of placeholder peptide and b2M, then reconstituted with test peptide and fresh b2M; also called B7; HLA-B7
Procedure, shortened: as §1

Binder: LKETEVVQG [5T4 9-mer peptide 155 (LKETEVVQG)]
- binding, % of positive control peptide [1]: 0 % of positive control
- binding, % of positive control peptide [2]: 3 % of positive control
- binding, % of positive control peptide [3]: 4 % of positive control
- binding, % of positive control peptide [4]: 3 % of positive control

Binder: PWVCDCHMA [5T4 9-mer peptide 148 (PWVCDCHMA)]
- binding, % of positive control peptide [1]: 0 % of positive control
- binding, % of positive control peptide [2]: 0 % of positive control
- binding, % of positive control peptide [3]: 0 % of positive control
- binding, % of positive control peptide [4]: 0 % of positive control

Binder: DRLTCAYPE [5T4 9-mer peptide 160 (DRLTCAYPE)]
- binding, % of positive control peptide [1]: 0 % of positive control
- binding, % of positive control peptide [2]: 6 % of positive control
- binding, % of positive control peptide [3]: 5 % of positive control
- binding, % of positive control peptide [4]: 3 % of positive control

Binder: YHYRYEINA [5T4 9-mer peptide 200 (YHYRYEINA)]
- binding, % of positive control peptide [1]: 0 % of positive control
- binding, % of positive control peptide [2]: 7 % of positive control
- binding, % of positive control peptide [3]: 1 % of positive control
- binding, % of positive control peptide [4]: 5 % of positive control

Binder: ETEVVQGKD [5T4 9-mer peptide 156 (ETEVVQGKD)]
- binding, % of positive control peptide [1]: 0 % of positive control
- binding, % of positive control peptide [2]: 1 % of positive control
- binding, % of positive control peptide [3]: 3 % of positive control
- binding, % of positive control peptide [4]: 1 % of positive control

Binder: DLDCDPILP [5T4 9-mer peptide 171 (DLDCDPILP)]
- binding, % of positive control peptide [1]: 0 % of positive control
- binding, % of positive control peptide [2]: 0 % of positive control
- binding, % of positive control peptide [3]: 4 % of positive control
- binding, % of positive control peptide [4]: 3 % of positive control

Binder: EGYHYRYEI [5T4 9-mer peptide 199 (EGYHYRYEI)]
- binding, % of positive control peptide [1]: 0 % of positive control
- binding, % of positive control peptide [2]: 9 % of positive control
- binding, % of positive control peptide [3]: 0 % of positive control
- binding, % of positive control peptide [4]: 4 % of positive control

Binder: LELNSADLD [5T4 9-mer peptide 168 (LELNSADLD)]
- binding, % of positive control peptide [1]: 0 % of positive control
- binding, % of positive control peptide [2]: 3 % of positive control
- binding, % of positive control peptide [3]: 5 % of positive control
- binding, % of positive control peptide [4]: 3 % of positive control

Binder: INADPRLTN [5T4 9-mer peptide 203 (INADPRLTN)]
- binding, % of positive control peptide [1]: 0 % of positive control
- binding, % of positive control peptide [2]: 3 % of positive control
- binding, % of positive control peptide [3]: 1 % of positive control
- binding, % of positive control peptide [4]: 4 % of positive control

Binder: GKDRLTCAY [5T4 9-mer peptide 159 (GKDRLTCAY)]
- binding, % of positive control peptide [1]: 3 % of positive control
- binding, % of positive control peptide [2]: 6 % of positive control
- binding, % of positive control peptide [3]: 6 % of positive control
- binding, % of positive control peptide [4]: 4 % of positive control

Binder: LDNNPWVCD [5T4 9-mer peptide 146 (LDNNPWVCD)]
- binding, % of positive control peptide [1]: 0 % of positive control
- binding, % of positive control peptide [2]: 0 % of positive control
- binding, % of positive control peptide [3]: 2 % of positive control
- binding, % of positive control peptide [4]: 3 % of positive control

Binder: NGTLAELQG [5T4 9-mer peptide 138 (NGTLAELQG)]
- binding, % of positive control peptide [1]: 3 % of positive control
- binding, % of positive control peptide [2]: 9 % of positive control
- binding, % of positive control peptide [3]: 3 % of positive control
- binding, % of positive control peptide [4]: 0 % of positive control

Binder: PHIRVFLDN [5T4 9-mer peptide 143 (PHIRVFLDN)]
- binding, % of positive control peptide [1]: 0 % of positive control
- binding, % of positive control peptide [2]: 2 % of positive control
- binding, % of positive control peptide [3]: 3 % of positive control
- binding, % of positive control peptide [4]: 10 % of positive control

Binder: NIRDACRDH [5T4 9-mer peptide 194 (NIRDACRDH)]
- binding, % of positive control peptide [1]: 0 % of positive control
- binding, % of positive control peptide [2]: 1 % of positive control
- binding, % of positive control peptide [3]: 0 % of positive control
- binding, % of positive control peptide [4]: 6 % of positive control

Binder: YRYEINADP [5T4 9-mer peptide 201 (YRYEINADP)]
- binding, % of positive control peptide [1]: 0 % of positive control
- binding, % of positive control peptide [2]: 0 % of positive control
- binding, % of positive control peptide [3]: 1 % of positive control
- binding, % of positive control peptide [4]: 3 % of positive control

Binder: GAIFLLVLY [5T4 9-mer peptide 184 (GAIFLLVLY)]
- binding, % of positive control peptide [1]: 0 % of positive control
- binding, % of positive control peptide [2]: 5 % of positive control
- binding, % of positive control peptide [3]: 5 % of positive control
- binding, % of positive control peptide [4]: 0 % of positive control

Binder: LGIVLALIG [5T4 9-mer peptide 180 (LGIVLALIG)]
- binding, % of positive control peptide [1]: 0 % of positive control
- binding, % of positive control peptide [2]: 10 % of positive control
- binding, % of positive control peptide [3]: 1 % of positive control
- binding, % of positive control peptide [4]: 0 % of positive control

Binder: CAYPEKMRN [5T4 9-mer peptide 162 (CAYPEKMRN)]
- binding, % of positive control peptide [1]: 0 % of positive control
- binding, % of positive control peptide [2]: 11 % of positive control
- binding, % of positive control peptide [3]: 4 % of positive control
- binding, % of positive control peptide [4]: 3 % of positive control

Binder: PRLTNLSSN [5T4 9-mer peptide 205 (PRLTNLSSN)]
- binding, % of positive control peptide [1]: 2 % of positive control
- binding, % of positive control peptide [2]: 8 % of positive control
- binding, % of positive control peptide [3]: 2 % of positive control
- binding, % of positive control peptide [4]: 11 % of positive control

Binder: MRNRVLLEL [5T4 9-mer peptide 165 (MRNRVLLEL)]
- binding, % of positive control peptide [1]: 0 % of positive control
- binding, % of positive control peptide [2]: 6 % of positive control
- binding, % of positive control peptide [3]: 4 % of positive control
- binding, % of positive control peptide [4]: 13 % of positive control

Binder: DCDPILPPS [5T4 9-mer peptide 172 (DCDPILPPS)]
- binding, % of positive control peptide [1]: 0 % of positive control
- binding, % of positive control peptide [2]: 0 % of positive control
- binding, % of positive control peptide [3]: 3 % of positive control
- binding, % of positive control peptide [4]: 0 % of positive control

Binder: DNALKVLHN [5T4 9-mer peptide 134 (DNALKVLHN)]
- binding, % of positive control peptide [1]: 1 % of positive control
- binding, % of positive control peptide [2]: 5 % of positive control
- binding, % of positive control peptide [3]: 0 % of positive control
- binding, % of positive control peptide [4]: 0 % of positive control

Binder: KGIKKWMHN [5T4 9-mer peptide 190 (KGIKKWMHN)]
- binding, % of positive control peptide [1]: 3 % of positive control
- binding, % of positive control peptide [2]: 14 % of positive control
- binding, % of positive control peptide [3]: 3 % of positive control
- binding, % of positive control peptide [4]: 6 % of positive control

Binder: SADLDCDPI [5T4 9-mer peptide 170 (SADLDCDPI)]
- binding, % of positive control peptide [1]: 0 % of positive control
- binding, % of positive control peptide [2]: 4 % of positive control
- binding, % of positive control peptide [3]: 4 % of positive control
- binding, % of positive control peptide [4]: 3 % of positive control

Binder: LTCAYPEKM [5T4 9-mer peptide 161 (LTCAYPEKM)]
- binding, % of positive control peptide [1]: 16 % of positive control
- binding, % of positive control peptide [2]: 40 % of positive control
- binding, % of positive control peptide [3]: 8 % of positive control
- binding, % of positive control peptide [4]: 6 % of positive control

Binder: NNPWVCDCH [5T4 9-mer peptide 147 (NNPWVCDCH)]
- binding, % of positive control peptide [1]: 0 % of positive control
- binding, % of positive control peptide [2]: 0 % of positive control
- binding, % of positive control peptide [3]: 16 % of positive control
- binding, % of positive control peptide [4]: 4 % of positive control

Binder: ACRDHMEGY [5T4 9-mer peptide 196 (ACRDHMEGY)]
- binding, % of positive control peptide [1]: 3 % of positive control
- binding, % of positive control peptide [2]: 8 % of positive control
- binding, % of positive control peptide [3]: 4 % of positive control
- binding, % of positive control peptide [4]: 7 % of positive control

Binder: AELQGLPHI [5T4 9-mer peptide 140 (AELQGLPHI)]
- binding, % of positive control peptide [1]: 0 % of positive control
- binding, % of positive control peptide [2]: 9 % of positive control
- binding, % of positive control peptide [3]: 1 % of positive control
- binding, % of positive control peptide [4]: 0 % of positive control

Binder: DCHMADMVT [5T4 9-mer peptide 150 (DCHMADMVT)]
- binding, % of positive control peptide [1]: 0 % of positive control
- binding, % of positive control peptide [2]: 7 % of positive control
- binding, % of positive control peptide [3]: 3 % of positive control
- binding, % of positive control peptide [4]: 5 % of positive control

Binder: IRVFLDNNP [5T4 9-mer peptide 144 (IRVFLDNNP)]
- binding, % of positive control peptide [1]: 0 % of positive control
- binding, % of positive control peptide [2]: 4 % of positive control
- binding, % of positive control peptide [3]: 3 % of positive control
- binding, % of positive control peptide [4]: 5 % of positive control

Binder: LNSADLDCD [5T4 9-mer peptide 169 (LNSADLDCD)]
- binding, % of positive control peptide [1]: 0 % of positive control
- binding, % of positive control peptide [2]: 0 % of positive control
- binding, % of positive control peptide [3]: 3 % of positive control
- binding, % of positive control peptide [4]: 0 % of positive control

Binder: RDHMEGYHY [5T4 9-mer peptide 197 (RDHMEGYHY)]
- binding, % of positive control peptide [1]: 11 % of positive control
- binding, % of positive control peptide [2]: 6 % of positive control
- binding, % of positive control peptide [3]: 3 % of positive control
- binding, % of positive control peptide [4]: 5 % of positive control

Binder: IFLLVLYLN [5T4 9-mer peptide 185 (IFLLVLYLN)]
- binding, % of positive control peptide [1]: 0 % of positive control
- binding, % of positive control peptide [2]: 8 % of positive control
- binding, % of positive control peptide [3]: 0 % of positive control
- binding, % of positive control peptide [4]: 2 % of positive control

Binder: DPILPPSLQ [5T4 9-mer peptide 173 (DPILPPSLQ)]
- binding, % of positive control peptide [1]: 0 % of positive control
- binding, % of positive control peptide [2]: 7 % of positive control
- binding, % of positive control peptide [3]: 4 % of positive control
- binding, % of positive control peptide [4]: 0 % of positive control

Binder: VQGKDRLTC [5T4 9-mer peptide 158 (VQGKDRLTC)]
- binding, % of positive control peptide [1]: 0 % of positive control
- binding, % of positive control peptide [2]: 4 % of positive control
- binding, % of positive control peptide [3]: 6 % of positive control
- binding, % of positive control peptide [4]: 6 % of positive control

Binder: ADMVTWLKE [5T4 9-mer peptide 152 (ADMVTWLKE)]
- binding, % of positive control peptide [1]: 0 % of positive control
- binding, % of positive control peptide [2]: 6 % of positive control
- binding, % of positive control peptide [3]: 4 % of positive control
- binding, % of positive control peptide [4]: 8 % of positive control
